Assay results as given in patent US20090275083A1.
Positions count from the first letter of the chain named.

Columns and labels:
[1] = target: T1, Fusarium oxysporum lipase (FoL), wild type (Fusarium oxysporum); experiment: cell-based or functional assay
T1 chain: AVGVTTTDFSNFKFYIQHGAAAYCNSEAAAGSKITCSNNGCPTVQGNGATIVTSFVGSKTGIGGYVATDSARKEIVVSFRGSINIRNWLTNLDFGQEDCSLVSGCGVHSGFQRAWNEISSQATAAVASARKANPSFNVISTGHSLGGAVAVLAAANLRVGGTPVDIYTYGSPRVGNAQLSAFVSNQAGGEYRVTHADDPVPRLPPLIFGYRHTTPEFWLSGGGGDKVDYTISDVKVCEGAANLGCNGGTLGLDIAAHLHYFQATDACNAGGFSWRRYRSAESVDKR

[2] = target: T2, Fusarium oxysporum lipase (FoL) variant [change] (Fusarium oxysporum); experiment: cell-based or functional assay
T2 chain: T1 chain with I207E

Binder ATMTDAELEKKLNSYVQMDKEYVKNNQARS (modifications not checked) [Peptide P0 (wildtype FoL C-terminal peptide)] has an IC50 (half maximal inhibitory concentration; p-NP butyrate hydrolysis) (peptide/lipase ratio) [1] of 913 and an IC50 (half maximal inhibitory concentration; p-NP butyrate hydrolysis) (peptide/lipase ratio) [2] of 287.
